Results on three molecules are retold here after publication PMC4937323.

Read-outs that look alike come from different tables or passages of the source.

One data set concerns the target AroA (Homo sapiens, UniProt P27694;P15927;P35244 1-616;1-270;1-121, F238A;F269A). The experiment in a line: smTIRFM.
Another data set has as its target AroB (Homo sapiens, UniProt P27694;P15927;P35244 1-616;1-270;1-121, W361A;F386A). Nature of the data set: smTIRFM.
Data set [1] addresses T1, Aro2 (Homo sapiens, UniProt P27694;P15927;P35244 1-616;1-270;1-121, F269A;F386A). Nature of the data set: smTIRFM.
Data set [2] has as its target RPA (wild-type, biotinylated on RPA3) (Homo sapiens, UniProt P27694;P15927;P35244 1-616;1-270;1-121). The experiment in a line: EMSA. (In general: In EMSA bound probe runs differently from free probe, usually more slowly.)
Data set [3] addresses T1, Aro2. Nature of the data set: smTIRFM. This is another data set of the same source.

T1 sequence (P27694 whole entry F269A/F386A, chain 1 of 3): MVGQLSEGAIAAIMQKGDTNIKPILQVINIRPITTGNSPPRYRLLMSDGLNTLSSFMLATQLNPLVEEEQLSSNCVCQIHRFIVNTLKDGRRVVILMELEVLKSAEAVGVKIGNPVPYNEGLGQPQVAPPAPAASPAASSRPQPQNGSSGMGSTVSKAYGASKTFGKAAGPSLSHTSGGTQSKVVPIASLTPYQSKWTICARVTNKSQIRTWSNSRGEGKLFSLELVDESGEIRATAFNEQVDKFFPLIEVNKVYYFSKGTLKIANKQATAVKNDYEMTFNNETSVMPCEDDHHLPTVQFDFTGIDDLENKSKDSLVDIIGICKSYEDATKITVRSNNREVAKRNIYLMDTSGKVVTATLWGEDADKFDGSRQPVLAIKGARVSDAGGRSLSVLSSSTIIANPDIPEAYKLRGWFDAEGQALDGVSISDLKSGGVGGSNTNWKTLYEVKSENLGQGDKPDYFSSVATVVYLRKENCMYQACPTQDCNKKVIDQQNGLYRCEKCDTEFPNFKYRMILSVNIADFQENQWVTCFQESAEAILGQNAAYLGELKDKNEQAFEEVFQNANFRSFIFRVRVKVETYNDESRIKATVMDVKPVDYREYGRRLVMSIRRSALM
T1 sequence (P15927 whole entry, chain 2 of 3): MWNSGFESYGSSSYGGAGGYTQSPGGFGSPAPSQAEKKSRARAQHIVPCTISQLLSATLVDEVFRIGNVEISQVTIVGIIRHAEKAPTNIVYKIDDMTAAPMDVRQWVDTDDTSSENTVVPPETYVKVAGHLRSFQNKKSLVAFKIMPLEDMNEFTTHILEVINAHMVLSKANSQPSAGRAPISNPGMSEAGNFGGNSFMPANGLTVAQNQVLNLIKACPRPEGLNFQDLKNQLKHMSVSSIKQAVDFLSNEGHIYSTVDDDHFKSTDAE
T1 sequence (P35244 whole entry, chain 3 of 3): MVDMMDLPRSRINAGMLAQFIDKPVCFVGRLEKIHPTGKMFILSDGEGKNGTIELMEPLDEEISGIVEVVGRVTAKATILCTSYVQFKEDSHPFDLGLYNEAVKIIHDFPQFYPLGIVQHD
Sequence of RPA (wild-type, biotinylated on RPA3) (P27694 whole entry, chain 1 of 3): as the sequence (P27694 whole entry F269A/F386A, chain 1 of 3) above, with A269F, A386F counted along it
Sequence of RPA (wild-type, biotinylated on RPA3) (P15927 whole entry, chain 2 of 3): as the sequence (P15927 whole entry, chain 2 of 3) above
Sequence of RPA (wild-type, biotinylated on RPA3) (P35244 whole entry, chain 3 of 3): as the sequence (P35244 whole entry, chain 3 of 3) above
Sequence of AroA (P27694 whole entry F238A/F269A, chain 1 of 3): as the sequence (P27694 whole entry F269A/F386A, chain 1 of 3) above, with F238A, A386F counted along it
Sequence of AroA (P15927 whole entry, chain 2 of 3): as the sequence (P15927 whole entry, chain 2 of 3) above
Sequence of AroA (P35244 whole entry, chain 3 of 3): as the sequence (P35244 whole entry, chain 3 of 3) above
Sequence of AroB (P27694 whole entry W361A/F386A, chain 1 of 3): as the sequence (P27694 whole entry F269A/F386A, chain 1 of 3) above, with A269F, W361A counted along it
Sequence of AroB (P15927 whole entry, chain 2 of 3): as the sequence (P15927 whole entry, chain 2 of 3) above
Sequence of AroB (P35244 whole entry, chain 3 of 3): as the sequence (P35244 whole entry, chain 3 of 3) above

B1: dT15 (ssDNA)
DNA: TTTTTTTTTTTTTTT
On to B1, for which the binding result with AroA, in the data set with AroB and with Aro2 [1] was “no binding” throughout.

B2: 20 nt Bubble DNA (mixed)
DNA 1: CCCTAGATACCAGTAAGCCTAAGGCCGGATCTCGGGCCATCCATGTACGC
DNA 2: GCGTACATGGATGGCTTAGAGCTTAATTCCGAATCTACTGGTATCTAGGG
In the case of B2, the binding result in data set [2] is on record as “binds”.

B3: dT20 (ssDNA)
DNA: TTTTTTTTTTTTTTTTTTTT
For B3, in the data set with Aro2 [3], the binding result was “binds”.
